± gives the uncertainty stated by the source.
B1: Zinc finger homeobox protein 3, residues 2643 to 2698; numbered along this chain, Q15911 (parent)
chain: RLRTTITPEQLEILYQKYLLDSNPTRKMLDHIAHEVGLKKRVVQVWFQNTRARERK

Variants of: B1
Test: abundance fitness (aPCA) (normalised: wild type 0, dead -1); higher = more abundant; growth selection in yeast, the domain comes from the species named
Details: Homo sapiens

Question: Which abundance fitness does the source give for RLRTTITPEQLEILYQKYLLDSNPTRKMLDHIAHEVGLKKRVVQVWFQNTRARERY [K56Y] here?
Answer: The abundance fitness was -0.54 ± 0.19.

Question: With RLRTTITPEQLEILYQKYLLDSNPTRKMLDHIAHEVGLKKRVVQVWFQNTRARERM [K56M] as the variant, how does the abundance fitness read?
Answer: The abundance fitness was -0.204 ± 0.4.

Question: With RLRTTITPEQLEILYQKYLLDSNPTRKMLDHIAHEVGLKKRVVQVWFQNTRARERL [K56L] as the variant, how does the abundance fitness read?
Answer: Its abundance fitness is -0.527 ± 0.29.

Question: For RLRTTITPEQLEILYQKYLLDSNPTRKMLDHIAHEVGLKKRVVQVWFQNTRARERR [K56R], which abundance fitness is on record?
Answer: Its abundance fitness is -0.35 ± 0.17.

Question: With RLRTTITPEQLEILYQKYLLDSNPTRKMLDHIAHEVGLKKRVVQVWFQNTRARERP [K56P] as the variant, how does the abundance fitness read?
Answer: The abundance fitness was -0.225 ± 0.38.

Question: Which abundance fitness does the source give for RLRTTITPEQLEILYQKYLLDSNPTRKMLDHIAHEVGLKKRVVQVWFQNTRARERQ [K56Q] here?
Answer: Its abundance fitness is 0.032 ± 0.21.

Question: Which abundance fitness does the source give for RLRTTITPEQLEILYQKYLLDSNPTRKMLDHIAHEVGLKKRVVQVWFQNTRARERV [K56V] here?
Answer: Its abundance fitness is -0.073 ± 0.18.

Question: Which abundance fitness does the source give for RLRTTITPEQLEILYQKYLLDSNPTRKMLDHIAHEVGLKKRVVQVWFQNTRARERS [K56S] here?
Answer: The abundance fitness was 0.262 ± 0.14.

Question: Which abundance fitness does the source give for RLRTTITPEQLEILYQKYLLDSNPTRKMLDHIAHEVGLKKRVVQVWFQNTRARERH [K56H] here?
Answer: Its abundance fitness is -0.17 ± 0.4.

Question: For RLRTTITPEQLEILYQKYLLDSNPTRKMLDHIAHEVGLKKRVVQVWFQNTRARERN [K56N], which abundance fitness is on record?
Answer: The abundance fitness was -0.07 ± 0.21.

Question: Which abundance fitness does the source give for RLRTTITPEQLEILYQKYLLDSNPTRKMLDHIAHEVGLKKRVVQVWFQNTRARERA [K56A] here?
Answer: Its abundance fitness is 0.034 ± 0.33.

Question: Which abundance fitness does the source give for RLRTTITPEQLEILYQKYLLDSNPTRKMLDHIAHEVGLKKRVVQVWFQNTRARERW [K56W] here?
Answer: Its abundance fitness is -0.314 ± 0.28.

Question: Which abundance fitness does the source give for RLRTTITPEQLEILYQKYLLDSNPTRKMLDHIAHEVGLKKRVVQVWFQNTRARERT [K56T] here?
Answer: Its abundance fitness is 0.01 ± 0.23.

Question: With RLRTTITPEQLEILYQKYLLDSNPTRKMLDHIAHEVGLKKRVVQVWFQNTRARERE [K56E] as the variant, how does the abundance fitness read?
Answer: Its abundance fitness is 0.466 ± 0.2.

Question: Which abundance fitness does the source give for RLRTTITPEQLEILYQKYLLDSNPTRKMLDHIAHEVGLKKRVVQVWFQNTRARERG [K56G] here?
Answer: Its abundance fitness is 0.001 ± 0.15.

Question: Which abundance fitness does the source give for RLRTTITPEQLEILYQKYLLDSNPTRKMLDHIAHEVGLKKRVVQVWFQNTRARENK [R55N] here?
Answer: Its abundance fitness is 0.462 ± 0.17.

Question: With RLRTTITPEQLEILYQKYLLDSNPTRKMLDHIAHEVGLKKRVVQVWFQNTRAREPK [R55P] as the variant, how does the abundance fitness read?
Answer: Its abundance fitness is 0.105 ± 0.14.

Question: Which abundance fitness does the source give for RLRTTITPEQLEILYQKYLLDSNPTRKMLDHIAHEVGLKKRVVQVWFQNTRAREWK [R55W] here?
Answer: Its abundance fitness is 0.017 ± 0.1.

Question: For RLRTTITPEQLEILYQKYLLDSNPTRKMLDHIAHEVGLKKRVVQVWFQNTRARETK [R55T], which abundance fitness is on record?
Answer: The abundance fitness was 0.479 ± 0.14.

Question: Which abundance fitness does the source give for RLRTTITPEQLEILYQKYLLDSNPTRKMLDHIAHEVGLKKRVVQVWFQNTRAREIK [R55I] here?
Answer: Its abundance fitness is 0.142 ± 0.18.

Question: With RLRTTITPEQLEILYQKYLLDSNPTRKMLDHIAHEVGLKKRVVQVWFQNTRAREFK [R55F] as the variant, how does the abundance fitness read?
Answer: Its abundance fitness is 0.004 ± 0.18.

Question: For RLRTTITPEQLEILYQKYLLDSNPTRKMLDHIAHEVGLKKRVVQVWFQNTRAREKK [R55K], which abundance fitness is on record?
Answer: The abundance fitness was 0.496 ± 0.27.

Question: With RLRTTITPEQLEILYQKYLLDSNPTRKMLDHIAHEVGLKKRVVQVWFQNTRAREMK [R55M] as the variant, how does the abundance fitness read?
Answer: Its abundance fitness is 0.483 ± 0.21.

Question: For RLRTTITPEQLEILYQKYLLDSNPTRKMLDHIAHEVGLKKRVVQVWFQNTRARESK [R55S], which abundance fitness is on record?
Answer: The abundance fitness was 0.347 ± 0.094.

Question: Which abundance fitness does the source give for RLRTTITPEQLEILYQKYLLDSNPTRKMLDHIAHEVGLKKRVVQVWFQNTRAREHK [R55H] here?
Answer: Its abundance fitness is 0.001 ± 0.25.

Question: With RLRTTITPEQLEILYQKYLLDSNPTRKMLDHIAHEVGLKKRVVQVWFQNTRAREVK [R55V] as the variant, how does the abundance fitness read?
Answer: Its abundance fitness is 0.282 ± 0.082.

Question: For RLRTTITPEQLEILYQKYLLDSNPTRKMLDHIAHEVGLKKRVVQVWFQNTRAREYK [R55Y], which abundance fitness is on record?
Answer: Its abundance fitness is 0.113 ± 0.14.

Question: For RLRTTITPEQLEILYQKYLLDSNPTRKMLDHIAHEVGLKKRVVQVWFQNTRAREEK [R55E], which abundance fitness is on record?
Answer: The abundance fitness was 0.255 ± 0.13.

Question: For RLRTTITPEQLEILYQKYLLDSNPTRKMLDHIAHEVGLKKRVVQVWFQNTRAREQK [R55Q], which abundance fitness is on record?
Answer: The abundance fitness was 0.216 ± 0.18.

Source: the Human Domainome abundance scans (Beltran et al. 2025)
